In patent publication US20250236673A1 (Ablynx, published 2025):
Values joined by “and” are separate entries in the source; they are usually repeats but may differ in a detail not shown here. Equal values may be shown once.

How the values were obtained:
CD8 = assay: kinetics, method not stated in Example 3
soluble human TNFα = soluble human TNFα (human, UniProt P01375 77-233); assay: cell-based or functional assay
[1] = target: T1, recombinant human CEACAM5 (human, UniProt P06731 35-685, limits assumed); assay: SPR on CEACAM5 (Example 2; same values as in Table 13)
T1 construct: Immobilised by amine coupling on a CM5 chip
T1 sequence (looked up): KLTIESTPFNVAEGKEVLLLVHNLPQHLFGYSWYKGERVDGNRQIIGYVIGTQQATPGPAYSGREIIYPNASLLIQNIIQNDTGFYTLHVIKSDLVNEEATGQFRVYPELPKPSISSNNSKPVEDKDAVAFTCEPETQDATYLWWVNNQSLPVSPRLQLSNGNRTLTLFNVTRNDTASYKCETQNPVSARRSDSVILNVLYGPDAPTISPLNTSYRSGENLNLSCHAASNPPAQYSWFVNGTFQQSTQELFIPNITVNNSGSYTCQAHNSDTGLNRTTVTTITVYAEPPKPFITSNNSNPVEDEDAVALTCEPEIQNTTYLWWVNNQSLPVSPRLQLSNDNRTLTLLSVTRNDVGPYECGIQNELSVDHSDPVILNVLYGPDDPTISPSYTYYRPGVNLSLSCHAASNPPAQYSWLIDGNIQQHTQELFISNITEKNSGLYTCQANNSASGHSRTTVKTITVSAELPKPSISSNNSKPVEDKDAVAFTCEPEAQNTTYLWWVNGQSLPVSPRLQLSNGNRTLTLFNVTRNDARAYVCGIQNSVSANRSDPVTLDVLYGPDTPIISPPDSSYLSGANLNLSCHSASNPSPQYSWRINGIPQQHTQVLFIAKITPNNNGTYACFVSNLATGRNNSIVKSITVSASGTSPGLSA

[2] = target: T1, recombinant human CEACAM5; assay: SPR Biacore 8K+, CEACAM5 amine-coupled on CM5, ISVD analyte, 1:1 fit
[3] = target: T1, recombinant human CEACAM5; assay: SPR on CEACAM5 (Example 2; method not restated, as Example 1)
human serum albumin [4] = target: T2, human serum albumin (human, UniProt P02768 25-609); assay: SPR on HSA (Example 2; same values as in Table 13)
T2 construct: Immobilised by amine coupling on a C1 chip; also called HSA
T2 sequence (P02768 25-609 limits assumed): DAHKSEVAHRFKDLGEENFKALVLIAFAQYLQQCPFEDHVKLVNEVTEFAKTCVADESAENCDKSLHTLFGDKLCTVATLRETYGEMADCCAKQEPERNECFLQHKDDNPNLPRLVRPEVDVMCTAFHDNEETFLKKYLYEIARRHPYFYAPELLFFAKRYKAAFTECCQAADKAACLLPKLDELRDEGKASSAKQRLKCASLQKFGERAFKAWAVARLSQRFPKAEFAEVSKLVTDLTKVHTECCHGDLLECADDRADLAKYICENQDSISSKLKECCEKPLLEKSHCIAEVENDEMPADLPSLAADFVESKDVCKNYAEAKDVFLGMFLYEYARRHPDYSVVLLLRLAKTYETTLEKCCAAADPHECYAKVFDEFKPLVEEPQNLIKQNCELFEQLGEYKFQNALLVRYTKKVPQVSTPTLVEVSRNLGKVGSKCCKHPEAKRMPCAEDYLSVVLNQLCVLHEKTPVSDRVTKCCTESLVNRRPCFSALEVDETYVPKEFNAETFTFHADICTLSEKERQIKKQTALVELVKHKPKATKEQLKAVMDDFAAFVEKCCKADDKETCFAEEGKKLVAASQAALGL

human serum albumin [5] = target: T2, human serum albumin; assay: SPR Biacore 8K+, HSA amine-coupled on C1 chip, ISVD analyte, 1:1 fit

Sequence of soluble human TNFα (P01375 77-233 limits assumed): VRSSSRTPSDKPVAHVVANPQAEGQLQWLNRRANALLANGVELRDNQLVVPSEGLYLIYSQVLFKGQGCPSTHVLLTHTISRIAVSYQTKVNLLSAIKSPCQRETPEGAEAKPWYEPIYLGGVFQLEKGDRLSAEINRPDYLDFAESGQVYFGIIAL

B1: A044301298 (VHH)
VHH: EVQLVESGGGVVQPGGSLRLSCAASGFTFEDYAIGWFRQAPGREREEVSCIRTYDEQTYYADSVRGRFTISRDNARNTVSLQMNSLRPEDTALYYCAAGSYYACAYYSRPDPSEGHVDLDYWGQGTLVTVSS
Kd (CD8): 0.113 nM
koff (CD8): 0.000418 s⁻¹
kon (CD8): 3.69e+06 M⁻¹ s⁻¹

B2: A044301152 (VHH)
VHH: EVQLVESGGGVVQPGGSLRLSCAASGFTFEDYAIGWFRQAPGKEREEVSCIRTYDEQTYYADSVKGRFTISRDNAKNTVSLQMNSLRPEDTALYYCAAGSYYACAYYSRPDPSEGHVDLDYWGQGTLVTVSS
Kd (CD8): 0.122 nM
koff (CD8): 0.000412 s⁻¹
kon (CD8): 3.37e+06 M⁻¹ s⁻¹

B3: T031200256 (VHH)
VHH: DVQLVESGGGVVQPGGSLRLSCTASGFTFSTADMGWFRQAPGKGREFVARISGIDGTTYYDEPVKGRFTISRDKSKNTVYLQMNSLKPEDTALYYCRSPRYADQWSAYDYWGQGTLVTVSS
IC50, inhibition of human TNFα-induced NFkB activation (HEK293_NFkB-NLucP Nano luciferase reporter) (soluble human TNFα): 4.3e-11 M (inferred; column head prints 'Average of ka (1/Ms)')

B4: T031200262 (VHH)
VHH: DVQLVESGGGVVQPGGSLKLSCTASGFTFSTADMGWFRQAPGKGKEFVARISGIDGTTYYDEPVKGRFTISRDKSKNTVYLQMNSLKPEDTALYYCRSPRYADQWSAYDYWGKGTLVTVSS
IC50, inhibition of human TNFα-induced NFkB activation (HEK293_NFkB-NLucP Nano luciferase reporter) (soluble human TNFα): 6.43e-11 M (inferred; column head prints 'Average of ka (1/Ms)')

B5: T031200261 (VHH)
VHH: DVQLVESGGGVVQPGGSLKLSCTASGFTFSTADMGWFRQAPGKGREFVARISGIDGTTYYDEPVKGRFTISKDKSKNTVYLQMNSLKPEDTALYYCRSPRYADQWSAYDYWGKGTLVTVSS
IC50, inhibition of human TNFα-induced NFkB activation (HEK293_NFkB-NLucP Nano luciferase reporter) (soluble human TNFα): 1.91e-10 M (inferred; column head prints 'Average of ka (1/Ms)')

B6: T031200263 (VHH)
VHH: DVQLVESGGGVVQPGGSLKLSCTASGFTFSTADMGWFRQAPGKGKEFVARISGIDGTTYYDEPVKGRFTISKDKSKNTVYLQMNSLKPEDTALYYCRSPRYADQWSAYDYWGKGTLVTVSS
IC50, inhibition of human TNFα-induced NFkB activation (HEK293_NFkB-NLucP Nano luciferase reporter) (soluble human TNFα): 1.92e-10 M (inferred; column head prints 'Average of ka (1/Ms)')

B7: A016600058 (VHH)
VHH: DVQLVESGGGVVQPGGSLRLSCTASGFTFSTADMGWFRQAPGKGREFVARISGIDGTTYYDEPVKGRFTISRDNSKNTVYLQMNSLRPEDTALYYCRSPRYADQWSAYDYWGQGTLVTVSS
IC50, inhibition of human TNFα-induced NFkB activation (HEK293_NFkB-NLucP Nano luciferase reporter) (soluble human TNFα): 3.86e-11 M (inferred; column head prints 'Average of ka (1/Ms)') and 2.97e-11 M (inferred; column head prints 'Average of ka (1/Ms)')

B8: T031200257 (VHH)
VHH: DVQLVESGGGVVQPGGSLKLSCTASGFTFSTADMGWFRQAPGKGREFVARISGIDGTTYYDEPVKGRFTISRDKSKNTVYLQMNSLKPEDTALYYCRSPRYADQWSAYDYWGQGTLVTVSS
IC50, inhibition of human TNFα-induced NFkB activation (HEK293_NFkB-NLucP Nano luciferase reporter) (soluble human TNFα): 4.93e-11 M (inferred; column head prints 'Average of ka (1/Ms)')

B9: T031200258 (VHH)
VHH: DVQLVESGGGVVQPGGSLKLSCTASGFTFSTADMGWFRQAPGKGREFVARISGIDGTTYYDEPVKGRFTISRDNSKNTVYLQMNSLKPEDTALYYCRSPRYADQWSAYDYWGKGTLVTVSS
IC50, inhibition of human TNFα-induced NFkB activation (HEK293_NFkB-NLucP Nano luciferase reporter) (soluble human TNFα): 6.09e-11 M (inferred; column head prints 'Average of ka (1/Ms)')

B10: T031200260 (VHH)
VHH: DVQLVESGGGVVQPGGSLKLSCTASGFTFSTADMGWFRQAPGKGREFVARISGIDGTTYYDEPVKGRFTISRDKSKNTVYLQMNSLKPEDTALYYCRSPRYADQWSAYDYWGKGTLVTVSS
IC50, inhibition of human TNFα-induced NFkB activation (HEK293_NFkB-NLucP Nano luciferase reporter) (soluble human TNFα): 5.34e-11 M (inferred; column head prints 'Average of ka (1/Ms)')

B11: T031200259 (VHH)
VHH: DVQLVESGGGVVQPGGSLKLSCTASGFTFSTADMGWFRQAPGKGREFVARISGIDGTTYYDEPVKGRFTISKDNSKNTVYLQMNSLKPEDTALYYCRSPRYADQWSAYDYWGKGTLVTVSS
IC50, inhibition of human TNFα-induced NFkB activation (HEK293_NFkB-NLucP Nano luciferase reporter) (soluble human TNFα): 4.82e-11 M (inferred; column head prints 'Average of ka (1/Ms)')

B12: T028501789 (VHH)
VHH: EVQLVESGGGVVQPGGSLRLSCAASGLTFSTYTMGWFRQAPGKEREFVAAIIWSGSNTYYADSVKGRFTISRDNAKNTVYLQMNSLRPEDTALYYCAAQHFGPIGLTTRGYHYWGQGTLVTVSS
notes: also called A031500384; A0315007E07(L11V, S76N, N82bS, E83R, V89L, H91Y, N101H)
Kd [1]: 1.24 nM
koff [1]: 0.000885 s⁻¹
kon [1]: 716000 M⁻¹ s⁻¹
Kd [2]: 1.24 nM
koff [2]: 0.000885 s⁻¹
kon [2]: 716000 M⁻¹ s⁻¹

B13: T039400052 (VHH)
VHH: EVQLVESGGGVVQPGGSLRLSCAASGLTFSTYTMGWFRQAPGREREFVAAIIWSGSNTYYADSVRGRFTISRDKARNTVYLQMNSLRPEDTALYYCAAQHFGPIGLTTRGYHYWGQGTLVTVSS
notes: Single lysine at 73; also called HIS6-ENLYFQS-5GS-A0315007E07K43R, K64R, N73K, K75R
Kd [3]: 1.43 nM
koff [3]: 0.000633 s⁻¹
kon [3]: 441000 M⁻¹ s⁻¹

B14: T039400053 (VHH)
VHH: EVQLVESGGGVVQPGGSLRLSCAASGLTFSTYTMGWFRQAPGKEREFVAAIIWSGSNTYYADSVRGRFTISRDNARNTVYLQMNSLRPEDTALYYCAAQHFGPIGLTTRGYHYWGQGTLVTVSS
notes: Single lysine at 43; 24 used; also called HIS6-ENLYFQS-5GS-A0315007E07(K64R, K75R,)
Kd [3]: 0.943 nM
koff [3]: 0.000516 s⁻¹
kon [3]: 547000 M⁻¹ s⁻¹

B15: T028501805 (VHH)
VHH: EVQLVESGGGVVQPGGSLRLSCAASGFTFRSFGMSWVRQAPGKGPEWVSSISGSGSDTLYADSVKGRFTISRDNSKNTLYLQMNSLRPEDTALYYCTIGGSLSRSSQGTLVTVSS
notes: also called ALB00622; HSA006A06(K83R)
Kd (human serum albumin [4]): 1.28 nM
koff (human serum albumin [4]): 0.000992 s⁻¹
kon (human serum albumin [4]): 772000 M⁻¹ s⁻¹
Kd (human serum albumin [5]): 1.28 nM
koff (human serum albumin [5]): 0.000992 s⁻¹
kon (human serum albumin [5]): 772000 M⁻¹ s⁻¹

B16: T039400054 (VHH)
VHH: EVQLVESGGGVVQPGGSLRLSCAASGLTFSTYTMGWFRQAPGREREFVAAIIWSGSNTYYADSVRGRFTISRDNARNTVYLQMNSLRPEDTALYYCAAQHFGPIGLTTRGYHYWGQGTLVTVSS
notes: Single lysine at the C-terminus; also called HIS6-ENLYFQS-5GS-A0315007E07(K43R, K64R, K75R,)-K
Kd [3]: 1.01 nM
koff [3]: 0.000526 s⁻¹
kon [3]: 522000 M⁻¹ s⁻¹
